# Source: patent US20070078092A1 (CUREGENICS, published 2007)
# Square brackets hold non-standard residues; d marks the D form. Ends that are not written are not given here. * marks the point of attachment. Cholesteryloxycarbonyl = CC(C)CCC[C@@H](C)[C@H]1CC[C@H]2[C@@H]3CC=C4C[C@@H](OC(=O)*)CC[C@]4(C)[C@H]3CC[C@]12C; Myristoyl = CCCCCCCCCCCCCC(=O)*; hLeu = CC(C)CC[C@H](N)C(=O)O; Orn = NCCC[C@H](N)C(=O)O; Nva = CCC[C@H](N)C(=O)O; Dap = NC[C@H](N)C(=O)O
# B1: PTR 6154 (peptide)
# peptide: RPR[Nva]Y[Dap][hLeu]-NH2
# modifications: N-terminus assumed
# SMILES: CCC[C@H](NC(=O)[C@H](CCCNC(=N)N)NC(=O)[C@@H]1CCCN1C(=O)[C@@H](N)CCCNC(=N)N)C(=O)N[C@@H](Cc1ccc(O)cc1)C(=O)N[C@@H](CN)C(=O)N[C@@H](CCC(C)C)C(N)=O
# B2: PTR 6184 (peptide)
# peptide: RPR[Nva]YA[hLeu]-NH2
# modifications: N-terminus assumed
# SMILES: CCC[C@H](NC(=O)[C@H](CCCNC(=N)N)NC(=O)[C@@H]1CCCN1C(=O)[C@@H](N)CCCNC(=N)N)C(=O)N[C@@H](Cc1ccc(O)cc1)C(=O)N[C@@H](C)C(=O)N[C@@H](CCC(C)C)C(N)=O
# B3: PTR 6252 (peptide)
# peptide: [dR][dR][dR][dR][dR][dR][dR][dR][dR]GRPR[Nva]YA[hLeu]-NH2
# modifications: N-terminus assumed
# SMILES: CCC[C@H](NC(=O)[C@H](CCCNC(=N)N)NC(=O)[C@@H]1CCCN1C(=O)[C@H](CCCNC(=N)N)NC(=O)CNC(=O)[C@@H](CCCNC(=N)N)NC(=O)[C@@H](CCCNC(=N)N)NC(=O)[C@@H](CCCNC(=N)N)NC(=O)[C@@H](CCCNC(=N)N)NC(=O)[C@@H](CCCNC(=N)N)NC(=O)[C@@H](CCCNC(=N)N)NC(=O)[C@@H](CCCNC(=N)N)NC(=O)[C@@H](CCCNC(=N)N)NC(=O)[C@H](N)CCCNC(=N)N)C(=O)N[C@@H](Cc1ccc(O)cc1)C(=O)N[C@@H](C)C(=O)N[C@@H](CCC(C)C)C(N)=O
# B4: MPS ab60025-50 (peptide)
# peptide: [dK][dK][dK][dK][dK][dK][dK][dK][dK][dK]RPR[Nva]Y[Dap][hLeu]-NH2
# modifications: N-terminus assumed
# SMILES: CCC[C@H](NC(=O)[C@H](CCCNC(=N)N)NC(=O)[C@@H]1CCCN1C(=O)[C@H](CCCNC(=N)N)NC(=O)[C@@H](CCCCN)NC(=O)[C@@H](CCCCN)NC(=O)[C@@H](CCCCN)NC(=O)[C@@H](CCCCN)NC(=O)[C@@H](CCCCN)NC(=O)[C@@H](CCCCN)NC(=O)[C@@H](CCCCN)NC(=O)[C@@H](CCCCN)NC(=O)[C@@H](CCCCN)NC(=O)[C@H](N)CCCCN)C(=O)N[C@@H](Cc1ccc(O)cc1)C(=O)N[C@@H](CN)C(=O)N[C@@H](CCC(C)C)C(N)=O
# B5: MPS ab60025-49 (peptide)
# peptide: RPR[Nva]Y[Dap][hLeu][dK][dK][dK][dK][dK][dK][dK][dK][dK][dK]-NH2
# modifications: N-terminus assumed
# SMILES: CCC[C@H](NC(=O)[C@H](CCCNC(=N)N)NC(=O)[C@@H]1CCCN1C(=O)[C@@H](N)CCCNC(=N)N)C(=O)N[C@@H](Cc1ccc(O)cc1)C(=O)N[C@@H](CN)C(=O)N[C@@H](CCC(C)C)C(=O)N[C@H](CCCCN)C(=O)N[C@H](CCCCN)C(=O)N[C@H](CCCCN)C(=O)N[C@H](CCCCN)C(=O)N[C@H](CCCCN)C(=O)N[C@H](CCCCN)C(=O)N[C@H](CCCCN)C(=O)N[C@H](CCCCN)C(=O)N[C@H](CCCCN)C(=O)N[C@H](CCCCN)C(N)=O
# B6: MPS ab60025-94 (peptide)
# peptide: [dR][dR][dR][dR][dR][dR][dR]RPR[Nva]Y[Dap][hLeu]-NH2
# modifications: N-terminus assumed
# SMILES: CCC[C@H](NC(=O)[C@H](CCCNC(=N)N)NC(=O)[C@@H]1CCCN1C(=O)[C@H](CCCNC(=N)N)NC(=O)[C@@H](CCCNC(=N)N)NC(=O)[C@@H](CCCNC(=N)N)NC(=O)[C@@H](CCCNC(=N)N)NC(=O)[C@@H](CCCNC(=N)N)NC(=O)[C@@H](CCCNC(=N)N)NC(=O)[C@@H](CCCNC(=N)N)NC(=O)[C@H](N)CCCNC(=N)N)C(=O)N[C@@H](Cc1ccc(O)cc1)C(=O)N[C@@H](CN)C(=O)N[C@@H](CCC(C)C)C(N)=O
# B7: MPS ab60025-82 (peptide)
# peptide: [dK][dK][dK][dK][dK][dK][dK][dK]RPR[Nva]Y[Dap][hLeu]-NH2
# modifications: N-terminus assumed
# SMILES: CCC[C@H](NC(=O)[C@H](CCCNC(=N)N)NC(=O)[C@@H]1CCCN1C(=O)[C@H](CCCNC(=N)N)NC(=O)[C@@H](CCCCN)NC(=O)[C@@H](CCCCN)NC(=O)[C@@H](CCCCN)NC(=O)[C@@H](CCCCN)NC(=O)[C@@H](CCCCN)NC(=O)[C@@H](CCCCN)NC(=O)[C@@H](CCCCN)NC(=O)[C@H](N)CCCCN)C(=O)N[C@@H](Cc1ccc(O)cc1)C(=O)N[C@@H](CN)C(=O)N[C@@H](CCC(C)C)C(N)=O
# B8: PTR 6198 (peptide)
# peptide: Cholesteryloxycarbonyl-GRPR[Nva]YA[hLeu]-NH2
# SMILES: CCC[C@H](NC(=O)[C@H](CCCNC(=N)N)NC(=O)[C@@H]1CCCN1C(=O)[C@H](CCCNC(=N)N)NC(=O)CNC(=O)O[C@H]1CC[C@@]2(C)C(=CC[C@H]3[C@@H]4CC[C@H]([C@H](C)CCCC(C)C)[C@@]4(C)CC[C@@H]32)C1)C(=O)N[C@@H](Cc1ccc(O)cc1)C(=O)N[C@@H](C)C(=O)N[C@@H](CCC(C)C)C(N)=O
# B9: PTR 6164 (peptide)
# peptide: Cholesteryloxycarbonyl-RPR[Nva]Y[Dap][hLeu]-NH2
# SMILES: CCC[C@H](NC(=O)[C@H](CCCNC(=N)N)NC(=O)[C@@H]1CCCN1C(=O)[C@H](CCCNC(=N)N)NC(=O)O[C@H]1CC[C@@]2(C)C(=CC[C@H]3[C@@H]4CC[C@H]([C@H](C)CCCC(C)C)[C@@]4(C)CC[C@@H]32)C1)C(=O)N[C@@H](Cc1ccc(O)cc1)C(=O)N[C@@H](CN)C(=O)N[C@@H](CCC(C)C)C(N)=O
# B10: PTR 6180 (peptide)
# peptide: Myristoyl-GRPR[Nva]Y[Dap][hLeu]-NH2
# SMILES: CCCCCCCCCCCCCC(=O)NCC(=O)N[C@@H](CCCNC(=N)N)C(=O)N1CCC[C@H]1C(=O)N[C@@H](CCCNC(=N)N)C(=O)N[C@@H](CCC)C(=O)N[C@@H](Cc1ccc(O)cc1)C(=O)N[C@@H](CN)C(=O)N[C@@H](CCC(C)C)C(N)=O
# B11: PTR 6196 (peptide)
# peptide: Cholesteryloxycarbonyl-RPR[Nva]YA[hLeu]-NH2
# SMILES: CCC[C@H](NC(=O)[C@H](CCCNC(=N)N)NC(=O)[C@@H]1CCCN1C(=O)[C@H](CCCNC(=N)N)NC(=O)O[C@H]1CC[C@@]2(C)C(=CC[C@H]3[C@@H]4CC[C@H]([C@H](C)CCCC(C)C)[C@@]4(C)CC[C@@H]32)C1)C(=O)N[C@@H](Cc1ccc(O)cc1)C(=O)N[C@@H](C)C(=O)N[C@@H](CCC(C)C)C(N)=O
# Target: protein kinase B (PKB)
# Assay: cell-based or functional assay
row,Binder,"IC50, PKB kinase inhibition [nM]"
1,RPR[Orn]E(NH‑(CH2)2‑NH‑SO2‑Isoquinoline)SF [PTR 6132],20
2,B1,900
3,B2,300

# Target: protein kinase A (PKA)
# Assay: cell-based or functional assay
row,Binder,"IC50, PKA kinase inhibition [nM]"
1,RPR[Orn]E(NH‑(CH2)2‑NH‑SO2‑Isoquinoline)SF [PTR 6132],12
2,B1,> 50000
3,B2,> 50000

# Target: protein kinase B (PKB)
# Assay: cell-based or functional assay
# Remark: another data set of the same source
Binder,% Inhibition of PKB activity at 1 µM [%],% Inhibition of PKB activity at 10 µM [%]
B3,65,93
"RQIKIWFQNRRMKWKKRPRXYAX (Nva, Hol of the 6184 part) [MPS ab60025-4]",80,96
B4,93,98
"RQIKIWFQNRRMKWKKRPRXYXX (Nva, Dap, Hol of the 6154 part) [MPS ab60025-2]",60,92
B5,97,99
B6,76,92
B7,78,92

# Target: protein kinase B (PKB)
# Assay: cell-based or functional assay
# Remark: another data set of the same source
row,Binder,"IC50, in vitro PKB inhibition [nM]"
1,B3,800
2,"RQIKIWFQNRRMKWKKRPRXYAX (Nva, Hol of the 6184 part) [MPS ab60025-4]",200
3,B4,80
4,"RQIKIWFQNRRMKWKKRPRXYXX (Nva, Dap, Hol of the 6154 part) [MPS ab60025-2]",1000
5,B5,40
6,B6,400
7,B7,400

# Target: protein kinase B (PKB)
# Assay: cell-based or functional assay
# Remark: another data set of the same source
row,Binder,"IC50, kinase assay PKB [nM]"
1,B3,800
2,B8,500
3,B9,700
4,B10,900
5,B11,500
6,{Vitamin E succinate}-RPR[Nva]Y[Dap][hLeu]-NH2 [PTR 6244],3000
7,Cholesteryloxycarbonyl-RPR[Orn]E(Aminoethylsulfonamidoisoquinoline)SF-NH2 [PTR 6260],1000

# Target: protein kinase A (PKA)
# Assay: cell-based or functional assay
# Remark: another data set of the same source
row,Binder,"IC50, kinase assay PKA [nM]"
1,B3,10000
2,B8,5000
3,B9,10000
4,B10,20000
5,B11,5000
6,{Vitamin E succinate}-RPR[Nva]Y[Dap][hLeu]-NH2 [PTR 6244],10000
7,Cholesteryloxycarbonyl-RPR[Orn]E(Aminoethylsulfonamidoisoquinoline)SF-NH2 [PTR 6260],> 5000

# Target: protein kinase A (PKA)
# Assay: cell-based or functional assay
# Remark: another data set of the same source
row,Binder,"IC50, in vitro kinase assay PKA [nM]"
1,Cholesteryloxycarbonyl-RPR[Orn]E(aminopropylmercaptoisoquinoline)SF-NH2 [PTR 6300],300
